Measured values taken from paper PMC11417369, “DNA sequence and chromatin differentiate sequence-specific transcription factor binding in the human malaria parasite Plasmodium falciparum”.

T1: HDP1 homeodomain-like (Plasmodium falciparum, UniProt Q8IKH4 2990-3078)
T1 sequence: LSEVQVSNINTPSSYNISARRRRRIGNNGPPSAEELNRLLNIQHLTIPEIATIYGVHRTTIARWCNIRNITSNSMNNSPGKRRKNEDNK

B1: GTGCAC_site9646 (dsDNA)
DNA 1: TGTATATATATCTCAGTGCATTGCAAATTAAAAATT
DNA 2: AATTTTTAATTTGCAATGCACTGAGATATATATACA
B2: GTGCAC_site10120 (dsDNA)
DNA 1: AAAAACAAACTGTGCATGCACCAAAAAAAAAAAAAA
DNA 2: TTTTTTTTTTTTTTGGTGCATGCACAGTTTGTTTTT
B3: GTGCAC_site10696 (dsDNA)
DNA 1: AATGACTACATAATAGTGCAATATTAAAGAAAATTA
DNA 2: TAATTTTCTTTAATATTGCACTATTATGTAGTCATT
B4: GTGCAC_site9435 (dsDNA)
DNA 1: ATATTTTGTTTTATAGTGCACATGGGCATATATTAA
DNA 2: TTAATATATGCCCATGTGCACTATAAAACAAAATAT
B5: GTGCAC_site10384 (dsDNA)
DNA 1: TTTTCTTGGTTCAGTGTGCACTTATATATATATATA
DNA 2: TATATATATATATAAGTGCACACTGAACCAAGAAAA
B6: GTGCAC_site10425 (dsDNA)
DNA 1: CATGAGGTATAAAAGGTGCAAATTAATGAGAACATT
DNA 2: AATGTTCTCATTAATTTGCACCTTTTATACCTCATG
B7: GTGCAC_site10546 (dsDNA)
DNA 1: ATGAAATATTTATTTGTGCACTTAATTTGTTGGAAA
DNA 2: TTTCCAACAAATTAAGTGCACAAATAAATATTTCAT
B8: GTGCAC_site10104 (dsDNA)
DNA 1: CTTATAAGAATACTAGTGCACATAATTTAACGAAAA
DNA 2: TTTTCGTTAAATTATGTGCACTAGTATTCTTATAAG
B9: GTGCAC_site10461 (dsDNA)
DNA 1: TTTATACATACATTCGTGCACATACGTATAACATAT
DNA 2: ATATGTTATACGTATGTGCACGAATGTATGTATAAA
B10: GTGCAC_site9416 (dsDNA)
DNA 1: TTTCAAAAAAATAATGTGCACATTAGAAAATAAATA
DNA 2: TATTTATTTTCTAATGTGCACATTATTTTTTTGAAA
B11: GTGCAC_site9631 (dsDNA)
DNA 1: AAAAATAATCATTAGGTGCAAAAAATATATATATAT
DNA 2: ATATATATATATTTTTTGCACCTAATGATTATTTTT
B12: GTGCAC_site10318 (dsDNA)
DNA 1: ATATATATATATATAGTGCAAATATCTTCTTTATAA
DNA 2: TTATAAAGAAGATATTTGCACTATATATATATATAT
B13: GTGCAC_site9948 (dsDNA)
DNA 1: CTTAAATTAATTTGGGTGCATATATTTGTACACATT
DNA 2: AATGTGTACAAATATATGCACCCAAATTAATTTAAG
B14: GTGCAC_site9469 (dsDNA)
DNA 1: ACAAAAAAAAACGTGGTGCATTAATAATATTGTATA
DNA 2: TATACAATATTATTAATGCACCACGTTTTTTTTTGT
B15: GTGCAC_site9886 (dsDNA)
DNA 1: ATTTATTTATATTTAGTGCAATACTATTTTTAAATA
DNA 2: TATTTAAAAATAGTATTGCACTAAATATAAATAAAT
B16: GTGCAC_site10480 (dsDNA)
DNA 1: GGTATTTATGGACGCGTGCACACACATATGAACAAA
DNA 2: TTTGTTCATATGTGTGTGCACGCGTCCATAAATACC
B17: GTGCAC_site9657 (dsDNA)
DNA 1: CATAATTTAAAAAAGGTGCAAAATGGATAATATATA
DNA 2: TATATATTATCCATTTTGCACCTTTTTTAAATTATG
B18: GTGCAC_site10212 (dsDNA)
DNA 1: TATATATATATATATGTGCACATATATATGATATTA
DNA 2: TAATATCATATATATGTGCACATATATATATATATA

Molecular target: T1, HDP1 homeodomain-like
Assay: gcPBM; about 25 ug protein; PBS, 1% milk, 0.2 mg/ml BSA, salmon testes DNA, 0.03% Triton X-100
Conditions: tags: N-terminal GST (pGEX-4T-1), kept; chain copies: 2; label: surface-attached array probe

| Binder | binding signal |
| --- | --- |
| B1 | 9.68 ln median PBM intensity, better of two orientations |
| B2 | 10.3 ln median PBM intensity, better of two orientations |
| B3 | 10.4 ln median PBM intensity, better of two orientations |
| B4 | 9.71 ln median PBM intensity, better of two orientations |
| B5 | 10.2 ln median PBM intensity, better of two orientations |
| B6 | 9.91 ln median PBM intensity, better of two orientations |
| B7 | 9.86 ln median PBM intensity, better of two orientations |
| B8 | 10 ln median PBM intensity, better of two orientations |
| B9 | 10.1 ln median PBM intensity, better of two orientations |
| B10 | 10.5 ln median PBM intensity, better of two orientations |
| B11 | 9.83 ln median PBM intensity, better of two orientations |
| B12 | 9.8 ln median PBM intensity, better of two orientations |
| B13 | 9.77 ln median PBM intensity, better of two orientations |
| B14 | 9.75 ln median PBM intensity, better of two orientations |
| B15 | 9.95 ln median PBM intensity, better of two orientations |
| B16 | 10.4 ln median PBM intensity, better of two orientations |
| B17 | 10.1 ln median PBM intensity, better of two orientations |
| B18 | 10.3 ln median PBM intensity, better of two orientations |
